Data as given in US20210253701A1 (Regeneron, published 2021).

Assays:
[1] = target: T1, human MUC16 on OVCAR3 cells (human); assay: FACS, OVCAR3 (MUC16+) cells
T1 construct: Endogenous MUC16 of the OVCAR3 cell line; also called Mucin 16

[2] = target: T2, human CD3 (cell surface-expressed) (human, UniProt P07766 23-207; P04234 22-171); assay: cell-based or functional assay
[3] = target: T1, human MUC16 on OVCAR3 cells; assay: cell-based or functional assay
[4] = target: T2, human CD3 (cell surface-expressed); assay: FACS, Jurkat cells
[5] = target: T3, soluble heterodimeric hCD3ε/δ.mFc protein (human); assay: SPR 37 C, antigen-capture format
T3 construct: also called soluble human CD3; human CD3 heterodimeric protein
T3 sequence (P07766 23-126, stated change not applied, chain 1 of 2): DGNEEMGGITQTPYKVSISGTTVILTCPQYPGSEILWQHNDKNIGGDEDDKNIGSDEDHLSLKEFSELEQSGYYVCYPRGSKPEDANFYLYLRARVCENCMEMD
T3 sequence (P04234 22-105, stated change not applied, chain 2 of 2, further chain): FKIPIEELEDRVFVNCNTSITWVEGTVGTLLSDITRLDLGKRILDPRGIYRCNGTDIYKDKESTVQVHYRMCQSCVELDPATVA

T2 sequence (P07766 23-207 limits assumed, chain 1 of 2): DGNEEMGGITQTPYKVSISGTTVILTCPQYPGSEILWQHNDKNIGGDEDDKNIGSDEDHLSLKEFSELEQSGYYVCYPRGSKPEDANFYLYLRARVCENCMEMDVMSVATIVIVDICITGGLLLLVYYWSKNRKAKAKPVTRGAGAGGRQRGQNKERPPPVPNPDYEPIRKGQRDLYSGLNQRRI
T2 sequence (P04234 22-171 limits assumed, chain 2 of 2): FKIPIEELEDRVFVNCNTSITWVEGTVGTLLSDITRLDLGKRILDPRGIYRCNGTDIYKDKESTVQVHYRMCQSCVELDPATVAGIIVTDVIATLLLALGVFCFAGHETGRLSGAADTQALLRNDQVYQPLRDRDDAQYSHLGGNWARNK

Binder | EC50 [1] | T cell activation EC50 [2] | OVCAR3 cell depletion EC50 [3] | EC50 [4] | Kd [5]
BSMUC16/CD3-001 (bispecific antibody) chain 1: QVQLVESGGGLVKPGGSLRLSCAASGFTFSNYYMSWVRQAPGKGLEWISYISGRGSTIFYADSVKGRITISRDNAKNSLFLQMNSLRAEDTAVYFCVKDRGGYSPYWGQGTLVTVSS chain 2: EVQLVESGGGLVQPGRSLRLSCAASGFTFDDYSMHWVRQAPGKGLEWVSGISWNSGSKGYADSVKGRFTISRDNAKNSLYLQMNSLRAEDTALYYCAKYGSGYGKFYHYGLDVWGQGTTVTVSS chain 3: not shown | 1.2 nM | 0.00588 nM | 0.0224 nM | 3.21 nM | 
BSPSMA/CD3-004 (bispecific antibody) chain 1: QVQLVESGGGVVQPGRSLRLSCAASGFTFSSYGMHWVRQAPGKGLEWVAVISYAGNNKYYADSVKGRFTVSRDNSKKTLYLQMNSLRSEDTAVYYCAKDSYYDFLTDPDVLDIWGQGTMVTVSS chain 2: EVQLVESGGGLVQPGRSLRLSCAASGFTFDDYSMHWVRQAPGKGLEWVSGISWNSGSIGYADSVKGRFTISRDNAKNSLYLQMNSLRAEDTALYYCAKDGSGYGKFYYYGMDVWGQGTTVTVSS chain 3: DIQMTQSPSSLSASVGDSVTITCRASQSINNYLNWYQQKPGKAPKLLIYTASSLLSGVPSRFSGSGSGTDFTLTISGLHPEDFATYFCQQSFSTPPITFGQGTRLDIK |  |  |  |  | > 500 nM
BSPSMA/CD3-1800 (bispecific antibody) chain 1: QVQLVESGGGVVQPGRSLRLSCAASGFTFSSYGMHWVRQAPGKGLEWVAVISYAGNNKYYADSVKGRFTVSRDNSKKTLYLQMNSLRSEDTAVYYCAKDSYYDFLTDPDVLDIWGQGTMVTVSS chain 2: EVQLVESGGGLVQPGRSLRLSCAASGFTFDDYSMHWVRQAPGKGLEWVSGISWNSGSIGYADSVKGRFTISRDNAKNSLYLQMNSLRAEDTALYYCAKDGSGYGKFYYYGLDVWGQGTTVTVSS chain 3: DIQMTQSPSSLSASVGDSVTITCRASQSINNYLNWYQQKPGKAPKLLIYTASSLLSGVPSRFSGSGSGTDFTLTISGLHPEDFATYFCQQSFSTPPITFGQGTRLDIK |  |  |  |  | > 500 nM
BSPSMA/CD3-400 (bispecific antibody) chain 1: QVQLVESGGGVVQPGRSLRLSCAASGFTFSSYGMHWVRQAPGKGLEWVAVISYAGNNKYYADSVKGRFTVSRDNSKKTLYLQMNSLRSEDTAVYYCAKDSYYDFLTDPDVLDIWGQGTMVTVSS chain 2: EVQLVESGGGLVQPGRSLRLSCAASGFTFDDYAMHWVRQAPGKGLEWVSGISWNSGSIGYADSVKGRFTISRDNAKNSLYLQMNSLRAEDTALYYCAKDGSGYGKFYYYGMDVWGQGTTVTVSS chain 3: DIQMTQSPSSLSASVGDSVTITCRASQSINNYLNWYQQKPGKAPKLLIYTASSLLSGVPSRFSGSGSGTDFTLTISGLHPEDFATYFCQQSFSTPPITFGQGTRLDIK |  |  |  |  | > 500 nM
BSMUC16/CD3-002 (bispecific antibody) chain 1: QVQLVESGGGLVKPGGSLRLSCAASGFTFSNYYMSWVRQAPGKGLEWISYISGRGSTIFYADSVKGRITISRDNAKNSLFLQMNSLRAEDTAVYFCVKDRGGYSPYWGQGTLVTVSS chain 2: EVQLVESGGGLVQPGRSLRLSCAASGFTFDDYSMHWVRQAPGKGLEWVSGISWNSGSIGYADSVKGRFTISRDNAKNSLYLQMNSLRAEDTALYYCAKDGSGYGKFYYYGMDVWGQGTTVTVSS chain 3: not shown | 2.69 nM | 0.0101 nM | 0.0306 nM |  | 
